In IntAct's records for PubMed 16824107:

B1: Cytochrome c biogenesis ATP-binding export protein CcmA (Escherichia coli (strain K12)), P33931 (parent)
chain: MGMLEARELLCERDERTLFSGLSFTLNAGEWVQITGSNGAGKTTLLRLLTGLSRPDAGEVLWQGQPLHQVRDSYHQNLLWIGHQPGIKTRLTALENLHFYHRDGDTAQCLEALAQAGLAGFEDIPVNQLSAGQQRRVALARLWLTRATLWILDEPFTAIDVNGVDRLTQRMAQHTEQGGIVILTTHQPLNVAESKIRRISLTQTRAA
partner: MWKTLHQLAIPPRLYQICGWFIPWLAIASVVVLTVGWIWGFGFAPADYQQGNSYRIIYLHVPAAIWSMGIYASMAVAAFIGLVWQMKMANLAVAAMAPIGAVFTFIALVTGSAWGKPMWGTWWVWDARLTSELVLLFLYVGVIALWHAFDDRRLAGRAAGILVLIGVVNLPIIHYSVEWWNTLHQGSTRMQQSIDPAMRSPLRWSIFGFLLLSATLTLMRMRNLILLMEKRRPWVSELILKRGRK
B2: Cytochrome c biogenesis ATP-binding export protein CcmA (Escherichia coli (strain K12)), P33931 (parent)
chain: B1 chain
partner: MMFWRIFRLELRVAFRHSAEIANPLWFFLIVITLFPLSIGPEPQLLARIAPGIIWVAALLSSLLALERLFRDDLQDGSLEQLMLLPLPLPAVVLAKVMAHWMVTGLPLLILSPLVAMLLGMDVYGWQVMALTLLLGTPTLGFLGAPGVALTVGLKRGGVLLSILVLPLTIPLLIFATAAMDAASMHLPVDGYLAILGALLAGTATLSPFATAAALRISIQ

Variants of: B1
Conditions: with ccmc_ecoli ccmC

Variant | effect of a mutation on the interaction
G132A | with no effect

Variants of: B2
Conditions: with ccmb_ecoli ccmB

Variant | effect of a mutation on the interaction
G132A | with no effect
